Here are results for four molecules from patent US7026125, “Heterodimers of retinoid X receptors (RXRS) and other steroid hormone receptors” (Ligand Pharmaceuticals).

What all share (conditions): label: 32P
For one series, the target named is RXRα (Homo sapiens, UniProt P19793 P19793:1-462). In words: EMSA; at concentration used. The protocol:
(§1) (b) Gel retardation analysis of RXRα-TRα interaction using different DNA response elements. Gel retardation assays were carried out essentially as described in FIG. 1a but using different response elements. (−) represents the binding of unprogrammed reticulocyte lysate.
(§2) In vitro translated receptor protein (1 to 5 μl depending on the translation efficiency) was incubated with the ^32P-labeled oligonucleotides in a 20-μl reaction mixture containing 10 mM hepes buffer, pH 7.9, 50 mM KCl, 1 mM DTT, 2.5 mM MgCl, 10% glycerol, and 1 μg of poly(dI-dC) at 25° C. for 20 minutes. In general, relative low receptor concentration was used to obtain the clear effect of heterodimer formation. The reaction mixture was then loaded on a 5% nondenaturing ployacrylamide gel containing 0.5×TBE (1×TBE=0.089 M Tris-borate, 0.089 M boric acid, and 0.002 M EDTA). To analyze the effect of RXRα or the nuclear proteins on receptor DNA binding activity, RXRα or the cell extracts were preincubated with receptor protein at room temperature for 10 minutes before performing the DNA binding assay. When antibody was used, 1 μl of the antiserum was incubated with the specific translation products at room temperature for 45 minutes before performing the experiments described above.

Series [1] concerns the target T1, TRα/RXRα heterodimer (UniProt P10827-2;P19793 P10827-2:1-410,P19793:1-462). The series can be described thus: EMSA; TRα binding abolished by RXRα. The protocol:
as §2

The target in series [2] is T2, TRα (UniProt P10827-2 P10827-2:1-410).
T2 sequence: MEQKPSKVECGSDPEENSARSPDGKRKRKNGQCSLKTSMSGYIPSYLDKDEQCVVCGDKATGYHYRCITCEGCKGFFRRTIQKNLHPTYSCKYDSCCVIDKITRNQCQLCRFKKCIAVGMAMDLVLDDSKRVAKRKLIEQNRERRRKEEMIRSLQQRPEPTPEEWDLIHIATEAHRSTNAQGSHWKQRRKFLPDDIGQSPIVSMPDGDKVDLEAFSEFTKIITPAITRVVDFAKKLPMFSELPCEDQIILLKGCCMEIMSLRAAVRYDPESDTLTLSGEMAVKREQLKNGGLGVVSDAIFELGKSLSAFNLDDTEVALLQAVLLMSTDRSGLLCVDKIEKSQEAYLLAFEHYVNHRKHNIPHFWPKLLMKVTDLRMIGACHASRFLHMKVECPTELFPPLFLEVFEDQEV
In words: EMSA; about as efficient as palindromic TRE. The protocol: as §2
Background: In EMSA bound probe runs differently from free probe, usually more slowly.

For series [3], the target named is T1, TRα/RXRα heterodimer. In words: EMSA; strongly enhanced and upshifted versus TRα alone. The protocol: as §2
The target in series [4] is T2, TRα. In words: EMSA; one complex. The protocol: as §2
For series [5], the target named is T1, TRα/RXRα heterodimer. The series can be described thus: EMSA; strong binding. The protocol: as §2
Series [6] concerns the target T2, TRα. In words: EMSA; no visible binding. The protocol:
as §1, §2

Series [7] concerns the target T2, TRα. The series can be described thus: EMSA. The protocol:
as §2

T1 sequence (P19793 whole entry, one chain of several): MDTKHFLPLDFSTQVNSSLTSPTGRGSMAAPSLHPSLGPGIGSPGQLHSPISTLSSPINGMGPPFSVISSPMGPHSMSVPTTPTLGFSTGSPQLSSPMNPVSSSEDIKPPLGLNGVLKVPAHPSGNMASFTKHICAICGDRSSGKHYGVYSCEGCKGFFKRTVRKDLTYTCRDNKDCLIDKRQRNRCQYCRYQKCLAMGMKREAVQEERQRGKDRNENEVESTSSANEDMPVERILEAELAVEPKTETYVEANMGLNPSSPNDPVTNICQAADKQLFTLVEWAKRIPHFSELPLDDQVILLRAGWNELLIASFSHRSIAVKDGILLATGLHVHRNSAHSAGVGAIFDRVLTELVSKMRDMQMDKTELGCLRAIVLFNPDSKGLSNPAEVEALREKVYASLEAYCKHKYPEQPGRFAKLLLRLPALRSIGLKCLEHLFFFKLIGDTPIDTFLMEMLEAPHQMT
RXRα, sequence (P19793 whole entry, one chain of several): as above

B1: TRE/half (dsDNA)
DNA 1: GATCTCAGGTCAGATC
DNA 2: GATCTGACCTGAGATC
On to B1, for which the figures for the binding result with RXRα, in the series with TRα/RXRα heterodimer [1] and with TRα [2] were “no binding”, “no binding” and “binds”, respectively.

B2: TRE/OP (inverted repeat, 4 bp spacer) (dsDNA)
DNA 1: GATCCTGACCTGAGATCTCAGGTCAGGATC
DNA 2: B2 DNA 1
Consider B2, for which the binding result in the series with RXRα is listed as “no binding”; in the series with TRα/RXRα heterodimer [3], “binds”; in the series with TRα [4], “binds”.

B3: βRARE (dsDNA)
DNA 1: GATCAGGGTTCAGGCAAAGTTCACGATC
DNA 2: GATCGTGAACTTTGCCTGAACCCTGATC
For B3, the binding result is “binds” with TRα/RXRα heterodimer [5], “no binding” with RXRα and “no binding” in the series with TRα [6].

B4: ERE palindrome (dsDNA)
DNA 1: GATCTCAGGTCACTGTGACCTGAGATC
DNA 2: GATCTCAGGTCACAGTGACCTGAGATC
B4: the binding result in the series with TRα [7] is on record as “binds”; with RXRα, “no binding”; with TRα/RXRα heterodimer [1], “no binding”.
